{
  "source": "paper PMC5692602",
  "molecular_target": "^15N-labeled intersectin 1-SH3A domain (UniProt Q15811)",
  "sequence (Q15811 740-806)": "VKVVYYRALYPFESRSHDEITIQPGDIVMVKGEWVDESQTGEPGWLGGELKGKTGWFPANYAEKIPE",
  "experiment": "NMR titration",
  "data": [
    {"substance": "SH3A–B interdomain linker-derived peptide of intersectin 1, T832 and T839 phosphorylated", "values": [
      {"measurement": "Kd", "result": 793, "unit": "µM"}
    ]},
    {"substance": "SH3A–B interdomain linker-derived peptide of intersectin 1, dephosphorylated", "values": [
      {"measurement": "Kd", "result": 275, "unit": "µM"}
    ]}
  ]
}
